Test [1] addresses T1, human CD3ε/δ (ACRO systems, CDD-H52W1) (human, UniProt P07766 23-126; P04234 22-105).
T1 construct: bought recombinant heterodimer; also called human CD3 epsilon/delta; Human CD3ε/CD3δ
Briefly: serum-stability ELISA, Day 1 vs Day 0.
Method: (§1) The samples to be tested were centrifuged at 4° C. at 12000 rpm for 30 minutes to remove the precipitate. 200 μl of each sample to be tested (0.5 mg/ml) was collected in a 1.5 ml Eppendorf tube. An equal volume of human serum (GEMINI, H2OYOOK) was added, mixed thoroughly, and the mixture was incubated in a 37° C. constant temperature CO₂ incubator. For a total of 10 days, 40 μl samples was aspirated every day and stored at −20° C.
(§2) Enzyme-linked immunosorbent assay (ELISA) was used to test the bispecific antibodies' binding to human CEA and human CD3 epsilon/delta antigen. The steps are as follows: the antigen human CD3ε/δ (ACRO systems, CDD-H52W1) and the recombinant tumor antigen human CEA (CEACAM-5/CD66e, ACRO systems, CE5-H5226) were diluted to 1 μg/ml with PBS, and then added to the 96-well plate at 100 μl per well. The wells were coated overnight at 4° C. After washing 3 times with 0.05% PBST, 200 μl 5% skimmed milk powder was added to each well and incubated at 37° C. for 2 h. After washing 3 times with 0.05% PBST, 100 μl primary antibody sample (10 μg/ml) was added to each well, and incubated at 37° C. for 2 h. After washing 3 times with 0.05% PBST, 100 μl (1:6000) diluted secondary antibody goat anti-human Fc-HRP (sigma, A2170) was added to each well, incubated at room temperature for 1 h. After washing 8 times with 0.05% PBST, 50 μl TMB color developing solution was added to each well, and incubated at room temperature for 10-15 min. 50 μl 1 mM HCl was added to each well to stop the color development. 450 nm Absorbance (OD) was read.
(§3) The binding of antibodies to antigen was calculated according to the following formula: Binding (%)=[(ODdayn−ODb)/(ODday0−ODb)]×100%. ODdayn: experimental well (the protein was stored in the serum for n days); ODday0: control well (the protein was not stored in the serum); ODb: blank well (no primary antibody added).

Test [2] addresses T1, human CD3ε/δ (ACRO systems, CDD-H52W1). Briefly: serum-stability ELISA, Day 2 vs Day 0. For orientation: In an ELISA, binding on a coated surface is turned into a signal by an enzyme label.
Method: as §1, §2, §3
Test [3] shares this target. The test can be described thus: serum-stability ELISA, Day 5 vs Day 0.
Method: as §1, §2, §3
The target is the same in test [4]. Briefly: serum-stability ELISA, Day 6 vs Day 0.
Method: as §1, §2, §3
The target is the same in test [5]. Briefly: serum-stability ELISA, Day 7 vs Day 0.
Method: as §1, §2, §3
The target is the same in test [6]. The test can be described thus: serum-stability ELISA, Day 9 vs Day 0.
Method: as §1, §2, §3
The target is the same in test [7]. Briefly: serum-stability ELISA, Day 10 vs Day 0.
Method: as §1, §2, §3
Test [8] has the same target. Briefly: serum-stability ELISA, Day 0 (reference).
For test [9] the target is unchanged. Briefly: serum-stability ELISA, Day 1 vs Day 0. The source holds these as a separate data set.
Method: as §1, §2, §3
Test [10] has the same target. Briefly: serum-stability ELISA, Day 2 vs Day 0. This is another data set of the same source.
Method: as §1, §2, §3
For test [11] the target is unchanged. The test can be described thus: serum-stability ELISA, Day 5 vs Day 0. The source holds these as a separate data set.
Method: as §1, §2, §3
The target is the same in test [12]. The test can be described thus: serum-stability ELISA, Day 6 vs Day 0. This is another data set of the same source.
Method: as §1, §2, §3
The target is the same in test [13]. The test can be described thus: serum-stability ELISA, Day 7 vs Day 0. This is another data set of the same source.
Method: as §1, §2, §3
Test [14] has the same target. The test can be described thus: serum-stability ELISA, Day 9 vs Day 0. This is another data set of the same source.
Method: as §1, §2, §3
Test [15] has the same target. The test can be described thus: serum-stability ELISA, Day 10 vs Day 0. This is another data set of the same source.
Method: as §1, §2, §3
Test [16] shares this target. Briefly: serum-stability ELISA, Day 0 (reference). The source holds these as a separate data set.

B1: 210 (Fab (Light)-Knob+Fab (Heavy)-Hole-CEA) (bispecific antibody, human IgG4 S228P, kappa, F234A L235A)
light: QAVVTQESALTTSPGETVTLTCRSSTGAVTTSNYANWVQEKPDHLFTGLIGGTNKRAPGVPARFSGSLIGDKAALTITGAQTEDEAIYFCALWYSNLWVFGGGTKVEIKRTVAAPSVFIFPPSDEQLKSGTASVVCLLNNFYPREAKVQWKVDNALQSGNSQESVTEQDSKDSTYSLSSTLTLSKADYEKHKVYACEVTHQGLSSPVTKSFNRGECESKYGPPCPPCPAPEAAGGPSVFLFPPKPKDTLMISRTPEVTCVVVDVSQEDPEVQFNWYVDGVEVHNAKTKPREEQFNSTYRVVSVLTVLHQDWLNGKEYKCKVSNKGLPSSIEKTISKAKGQPREPQVYTLPPCQEEMTKNQVSLWCLVKGFYPSDIAVEWESNGQPENNYKTTPPVLDSDGSFFLYSRLTVDKSRWQEGNVFSCSVMHEALHNHYTQKSLSLSL
heavy: EVKLLESGGGLVQPKGSLKLSCAASGFTFNTYAMNWVRQAPGKGLEWVARIRSKYNNYATYYADSVKDRFTISRDDSQSILYLQMNNLKTEDTAMYYCVRHGNFGNSYVSWFAYWGQGTLVTVSSASTKGPSVFPLAPCSRSTSESTAALGCLVKDYFPEPVTVSWNSGALTSGVHTFPAVLQSSGLYSLSSVVTVPSSSLGTKTYTCNVDHKPSNTKVDKRVESKYGPPCPPCPAPEAAGGPSVFLFPPKPKDTLMISRTPEVTCVVVDVSQEDPEVQFNWYVDGVEVHNAKTKPREEQFNSTYRVVSVLTVLHQDWLNGKEYKCKVSNKGLPSSIEKTISKAKGQPREPQVCTLPPSQEEMTKNQVSLSCAVKGFYPSDIAVEWESNGQPENNYKTTPPVLDSDGSFFLVSRLTVDKSRWQEGNVFSCSVMHEALHNRFTQKSLSLSLGGGGSGGGGSEVQLVESGGGFVQAGESLTLSCTSSTLTFTPYRMAWYRQAPGKQRDLVADISSGDGRTTNYADFAKGRFTISRDNIKNTVFLRMTNLKPEDTAVYYCNTFVSFVGIARSWGQGTQVTVSS
notes: two-chain format: VL-CL fused to knob Fc
As to B1, the Binding % in test [1] was found to be 105%; in test [2], 102%; in test [3] it was 97.3%; in [4], 101%; in [5], 102%; in [6], 101%. Also, the results for the Binding % in [7] and in [8] were 101% and 100%, respectively.

B2: 302 (TA3), configuration of FIG. 1W (bispecific antibody)
heavy: EVQLVESGGGLVQPGGSLRLSCAASGYSFTGYTMNWVRQAPGKGLEWVALINPYKGVSTYNQKFKDRFTISVDKSKNTAYLQMNSLRAEDTAVYYCARSGYYGDSDWYFDVWGQGTLVTVSSASTKGPSVFPLAPCSRSTSESTAALGCLVKDYFPEPVTVSWNSGALTSGVHTFPAVLQSSGLYSLSSVVTVPSSSLGTKTYTCNVDHKPSNTKVDKRVESKYGPPCPPCPAPEAAGGPSVFLFPPKPKDTLMISRTPEVTCVVVDVSQEDPEVQFNWYVDGVEVHNAKTKPREEQFNSTYRVVSVLTVLHQDWLNGKEYKCKVSNKGLPSSIEKTISKAKGQPREPQVYTLPPCQEEMTKNQVSLWCLVKGFYPSDIAVEWESNGQPENNYKTTPPVLDSDGSFFLYSRLTVDKSRWQEGNVFSCSVMHEALHNHYTQKSLSLSL
chain: EVQLVESGGGFVQAGESLTLSCTSSTLTFTPYRMAWYRQAPGKQRDLVADISSGDGRTTNYADFAKGRFTISRDNIKNTVFLRMTNLKPEDTAVYYCNTFVSFVGIARSWGQGTQVTVSSESKYGPPCPPCPAPEAAGGPSVFLFPPKPKDTLMISRTPEVTCVVVDVSQEDPEVQFNWYVDGVEVHNAKTKPREEQFNSTYRVVSVLTVLHQDWLNGKEYKCKVSNKGLPSSIEKTISKAKGQPREPQVCTLPPSQEEMTKNQVSLSCAVKGFYPSDIAVEWESNGQPENNYKTTPPVLDSDGSFFLVSRLTVDKSRWQEGNVFSCSVMHEALHNRFTQKSLSLSL
light: DIQMTQSPSSLSASVGDRVTITCRASQDIRNYLNWYQQKPGKAPKLLIYYTSRLESGVPSRFSGSGSGTDYTLTISSLQPEDFATYYCQQGNTLPWTFGQGTKVEIK
notes: not shown: kappa light chain constant domain (CL)
B2: the Binding % in test [9] was found to be 108%; in test [10], 104%; in test [11], 110%; in [12], 107%; in test [13], 104%; in test [14], 103%. For the same molecule, the figures for the Binding % in test [15] and in test [16] were 106% and 100%, respectively.

B3: 304 (TA5), configuration of FIG. 1W (bispecific antibody)
heavy: DVQLVQSGAEVKKPGASVKVSCKASGYTFTRYTMHWVRQAPGQGLEWIGYINPSRGYTNYADSVKGRFTITTDKSTSTAYMELSSLRSEDTATYYCARYYDDHYCLDYWGQGTTVTVSSASTKGPSVFPLAPCSRSTSESTAALGCLVKDYFPEPVTVSWNSGALTSGVHTFPAVLQSSGLYSLSSVVTVPSSSLGTKTYTCNVDHKPSNTKVDKRVESKYGPPCPPCPAPEAAGGPSVFLFPPKPKDTLMISRTPEVTCVVVDVSQEDPEVQFNWYVDGVEVHNAKTKPREEQFNSTYRVVSVLTVLHQDWLNGKEYKCKVSNKGLPSSIEKTISKAKGQPREPQVYTLPPCQEEMTKNQVSLWCLVKGFYPSDIAVEWESNGQPENNYKTTPPVLDSDGSFFLYSRLTVDKSRWQEGNVFSCSVMHEALHNHYTQKSLSLSL
chain: EVQLVESGGGFVQAGESLTLSCTSSTLTFTPYRMAWYRQAPGKQRDLVADISSGDGRTTNYADFAKGRFTISRDNIKNTVFLRMTNLKPEDTAVYYCNTFVSFVGIARSWGQGTQVTVSSESKYGPPCPPCPAPEAAGGPSVFLFPPKPKDTLMISRTPEVTCVVVDVSQEDPEVQFNWYVDGVEVHNAKTKPREEQFNSTYRVVSVLTVLHQDWLNGKEYKCKVSNKGLPSSIEKTISKAKGQPREPQVCTLPPSQEEMTKNQVSLSCAVKGFYPSDIAVEWESNGQPENNYKTTPPVLDSDGSFFLVSRLTVDKSRWQEGNVFSCSVMHEALHNRFTQKSLSLSL
light: DIVLTQSPATLSLSPGERATLSCRASQSVSYMNWYQQKPGKAPKRWIYDTSKVASGVPARFSGSGSGTDYSLTINSLEAEDAATYYCQQWSSNPLTFGGGTKVEIK
notes: VL row printed 'TAS VL', read as TA5 VL; full chains assembled from parts; not shown: kappa light chain constant domain (CL)
For B3, the Binding % in [9] was determined as 108%; in test [10], 106%; in test [11] it was 100%; in [12], 105%; in test [13] it was 107%; in [14], 101%. The Binding % in test [15] was 101%; in test [16] it was 100%.

B4: 305 (TA6), configuration of FIG. 1W (bispecific antibody)
heavy: EVQLVQSGAEVKKPGASVKVSCKASGYTFTNYYIHWVRQAPGQGLEWIGWIYPGDGNTKYNEKFKGRATLTADTSTSTAYLELSSLRSEDTAVYYCARDSYSNYYFDYWGQGTLVTVSSASTKGPSVFPLAPCSRSTSESTAALGCLVKDYFPEPVTVSWNSGALTSGVHTFPAVLQSSGLYSLSSVVTVPSSSLGTKTYTCNVDHKPSNTKVDKRVESKYGPPCPPCPAPEAAGGPSVFLFPPKPKDTLMISRTPEVTCVVVDVSQEDPEVQFNWYVDGVEVHNAKTKPREEQFNSTYRVVSVLTVLHQDWLNGKEYKCKVSNKGLPSSIEKTISKAKGQPREPQVYTLPPCQEEMTKNQVSLWCLVKGFYPSDIAVEWESNGQPENNYKTTPPVLDSDGSFFLYSRLTVDKSRWQEGNVFSCSVMHEALHNHYTQKSLSLSL
chain: EVQLVESGGGFVQAGESLTLSCTSSTLTFTPYRMAWYRQAPGKQRDLVADISSGDGRTTNYADFAKGRFTISRDNIKNTVFLRMTNLKPEDTAVYYCNTFVSFVGIARSWGQGTQVTVSSESKYGPPCPPCPAPEAAGGPSVFLFPPKPKDTLMISRTPEVTCVVVDVSQEDPEVQFNWYVDGVEVHNAKTKPREEQFNSTYRVVSVLTVLHQDWLNGKEYKCKVSNKGLPSSIEKTISKAKGQPREPQVCTLPPSQEEMTKNQVSLSCAVKGFYPSDIAVEWESNGQPENNYKTTPPVLDSDGSFFLVSRLTVDKSRWQEGNVFSCSVMHEALHNRFTQKSLSLSL
light: DIVMTQSPDSLAVSLGERATINCKSSQSLLNSRTRKNYLAWYQQKPGQPPKLLIYWASTRESGVPDRFSGSGSGTDFTLTISSLQAEDVAVYYCTQSFILRTFGQGTKVEIK
notes: as for B2
B4: the Binding % is 112% in test [9]; 109% in [10]; 110% in test [11]; 111% in test [12]; 110% in test [13]; 109% in [14]. In addition, the Binding % amounted to 108% in test [15] and 100% in [16].
